# Measured values taken from article PMC6642015 (Cell chemical biology, 2019).
# Substitutions are numbered along the chain they refer to.
# T1: human MCM-CblA complex (Homo sapiens, UniProt Q8IVH4)
# T1 sequence (Q8IVH4 66-418 limits assumed): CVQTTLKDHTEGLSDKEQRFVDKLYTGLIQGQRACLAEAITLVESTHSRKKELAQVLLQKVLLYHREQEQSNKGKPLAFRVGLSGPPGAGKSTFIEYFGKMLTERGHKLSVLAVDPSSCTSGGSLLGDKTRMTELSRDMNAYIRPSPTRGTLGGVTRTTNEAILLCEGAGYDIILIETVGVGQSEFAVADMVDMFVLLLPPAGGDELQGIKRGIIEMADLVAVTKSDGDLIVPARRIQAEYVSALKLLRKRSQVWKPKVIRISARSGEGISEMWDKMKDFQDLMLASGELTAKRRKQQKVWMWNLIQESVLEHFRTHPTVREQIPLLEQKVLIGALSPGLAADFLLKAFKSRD
# T1 sequence (P22033 33-750 partner): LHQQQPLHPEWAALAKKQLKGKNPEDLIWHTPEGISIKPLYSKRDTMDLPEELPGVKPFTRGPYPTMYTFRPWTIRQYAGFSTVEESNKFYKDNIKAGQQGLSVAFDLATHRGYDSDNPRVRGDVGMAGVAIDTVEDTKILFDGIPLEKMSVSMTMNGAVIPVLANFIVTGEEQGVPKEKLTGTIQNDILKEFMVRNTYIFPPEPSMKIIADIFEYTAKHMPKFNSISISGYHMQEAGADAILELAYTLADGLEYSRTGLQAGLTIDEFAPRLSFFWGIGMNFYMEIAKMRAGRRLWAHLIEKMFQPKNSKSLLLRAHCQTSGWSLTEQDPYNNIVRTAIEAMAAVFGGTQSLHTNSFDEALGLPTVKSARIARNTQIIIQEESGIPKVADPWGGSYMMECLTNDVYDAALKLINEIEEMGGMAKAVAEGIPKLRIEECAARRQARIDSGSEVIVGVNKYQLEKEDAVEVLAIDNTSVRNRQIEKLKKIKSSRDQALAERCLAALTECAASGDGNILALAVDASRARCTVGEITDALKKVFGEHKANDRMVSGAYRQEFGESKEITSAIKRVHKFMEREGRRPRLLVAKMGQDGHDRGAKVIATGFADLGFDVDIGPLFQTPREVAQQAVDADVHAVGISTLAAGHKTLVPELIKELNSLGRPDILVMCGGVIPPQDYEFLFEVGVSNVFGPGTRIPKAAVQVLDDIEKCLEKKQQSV
# T2: human CblA G274S (human, UniProt Q8IVH4 72-418, G274S)
# T2 sequence: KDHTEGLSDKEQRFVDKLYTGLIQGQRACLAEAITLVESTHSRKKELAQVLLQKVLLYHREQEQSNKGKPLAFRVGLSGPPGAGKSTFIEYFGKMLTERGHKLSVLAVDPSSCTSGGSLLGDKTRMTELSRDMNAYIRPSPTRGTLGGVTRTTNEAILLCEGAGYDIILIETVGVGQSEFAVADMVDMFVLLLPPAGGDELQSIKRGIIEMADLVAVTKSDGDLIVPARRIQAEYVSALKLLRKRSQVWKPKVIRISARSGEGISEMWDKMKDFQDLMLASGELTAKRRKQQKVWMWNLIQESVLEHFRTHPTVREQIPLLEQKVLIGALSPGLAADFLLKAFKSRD
# T3: human CblA Q273A (human, UniProt Q8IVH4 72-418, Q273A)
# T3 sequence: T2 sequence with Q202A, S203G
# T4: human CblA G278D (human, UniProt Q8IVH4 72-418, G278D)
# T4 sequence: T2 sequence with S203G, G207D
# T5: human CblA K276E (human, UniProt Q8IVH4 72-418, K276E)
# T5 sequence: T2 sequence with S203G, K205E
# T6: human CblA, wild type (human, UniProt Q8IVH4 72-418)
# T6 sequence: T2 sequence with S203G
# T7: human CblA K276A (human, UniProt Q8IVH4 72-418, K276A)
# T7 sequence: T2 sequence with S203G, K205A
# B1: human methylmalonyl-CoA mutase (enzyme, UniProt P22033 33-750, looked up)
# chain: T1 sequence (P22033 33-750 partner)
# Experiments:
# human MCM-CblA complex = target: T1, human MCM-CblA complex; assay: gel filtration and negative stain EM; assay type: binding; settings: MCM 25 μM, CblA 50 μM, GMPPCP 500 μM
# human CblA G274S = target: T2, human CblA G274S; assay: cell-based or functional assay
# human CblA Q273A = target: T3, human CblA Q273A; assay: cell-based or functional assay
# human CblA G278D = target: T4, human CblA G278D; assay: cell-based or functional assay
# human CblA K276E = target: T5, human CblA K276E; assay: cell-based or functional assay
# human CblA, wild type [1] = target: T6, human CblA, wild type; assay: cell-based or functional assay
# human CblA K276A = target: T7, human CblA K276A; assay: cell-based or functional assay
# human CblA, wild type [2] = target: T6, human CblA, wild type; assay: SEC-MALS
Molecule,gel filtration and negative stain EM; block of AdoCbl transfer (human MCM-CblA complex),GTPase activity of CblA in the presence of MCM (GAP activation) (human CblA G274S) [min⁻¹],GTPase activity of CblA in the presence of MCM (GAP activation) (human CblA Q273A) [min⁻¹],GTPase activity of CblA in the presence of MCM (GAP activation) (human CblA G278D) [min⁻¹],GTPase activity of CblA in the presence of MCM (GAP activation) (human CblA K276E) [min⁻¹],"GTPase activity of CblA in the presence of MCM (GAP activation) (human CblA, wild type [1]) [min⁻¹]",GTPase activity of CblA in the presence of MCM (GAP activation) (human CblA K276A) [min⁻¹],"stoichiometry N (human CblA, wild type [2])"
Nc1nc2c(ncn2[C@@H]2O[C@H](COP(=O)(O)OP(=O)(O)CP(=O)(O)O)[C@@H](O)[C@H]2O)c(=O)[nH]1 [GMPPCP],higher order oligomeric peak seen in the presence of GMPPCP,,,,,,,
B1,,1.04,0.86,3.07,0.92,2.78,2.98,2 MCM (dimer) per CblA (dimer)
